# Reference: patent US20250297019A1
# Experiments:
# [1] = biological target: cynomolgus monkey CCR8 (cynomolgus monkey); test: assay not described ('in vitro assays')
# [2] = biological target: human CCR8 (human) (UniProt P51685); test: assay not described ('in vitro assays')
# [3] = biological target: human CCR8 (human) (UniProt P51685); test: cell-based or functional assay
# Sequence of cynomolgus monkey CCR8 (cynomolgus monkey) (O97665 other isoform, or with tags, fused parts or gaps): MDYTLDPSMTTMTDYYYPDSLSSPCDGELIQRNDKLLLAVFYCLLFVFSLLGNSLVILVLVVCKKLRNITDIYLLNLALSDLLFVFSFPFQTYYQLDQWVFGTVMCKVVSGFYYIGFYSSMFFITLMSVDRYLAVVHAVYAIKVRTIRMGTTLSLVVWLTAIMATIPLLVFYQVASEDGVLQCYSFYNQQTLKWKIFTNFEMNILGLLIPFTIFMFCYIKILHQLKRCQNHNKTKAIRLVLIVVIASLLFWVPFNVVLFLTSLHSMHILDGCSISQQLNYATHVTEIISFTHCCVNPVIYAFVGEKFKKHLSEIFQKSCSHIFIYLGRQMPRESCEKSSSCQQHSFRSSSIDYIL
Kd [1] [µM],Kd [2] [µM],"ADCC geometric mean EC50 (calcein release; PBMC effector cells of 8 donors, hCCR8.GNA15 CHO target cells) [3] [ng/mL]","IC50 of CCL1 blocking (Ca2+ influx, CHO/hCCR8.Gna15 cells) [3] [µM]","induction fold at plateau (about 40 nM antibody), mFcgRIV Jurkat reporter with CHO/hCCR8 [3] [fold]","induction fold, mFcgRIV Jurkat NFAT-luciferase reporter with CHO/hCCR8, at about 1 nM antibody [3]",Substance
27,32,3,–,–,–,RO7502175 (antibody)
–,–,–,0.0236,11,> 10 .fold,murine anti-human CCR8 mAb L263G8 (Biolegend) (antibody)
